Data on one molecule can be found in patent US20190367592A1 (AC IMMUNE, published 2019).

Experiment [1] addresses T1, full-length human Tau (flTau) (human, UniProt P10636-8 1-441).
T1 construct: range 1-441; bought (SignalChem); also called human Tau-441
Put plainly: SPR, hybridoma Ab on anti-IgG chip, flTau analyte. The method in brief: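 Unpurified antibodies from serum-free hybridoma supernatants were captured on an anti-IgG SPR chip (Biacore T-100), and flTau was flowed as analyte. KD was obtained from kinetic analysis with a 1:1 Langmuir fit.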

The target in experiment [2] is T2, recombinant human Tau monomer, 2N4R isoform (amino acids 2-441) (human, UniProt P10636-8 2-441).
T2 construct: range 2-441; N-terminal His-tag removed with TEV protease; also called monomeric Tau
The experiment is described as follows: SPR single-cycle, Tau monomer amine-coupled, IgG analyte; IgG (bivalent, avidity); Tau monomer on the chip. Here is the method:
(§1) Human monomer Tau protein was covalently coupled to a Biacore Series S CM5 chip using the Biacore Amine Coupling Kit (GE Life Sciences), resulting in immobilization to a level of approximately 128 RU. Direct binding of 37D3-H9 in both Fab and IgG formats was monitored using the single-cycle kinetics experimental format with five association periods of 300s each and antibody concentrations of 1, 2, 4, 8 and 16 nM (IgG) or 5, 10, 20, 40 and 80 nM (Fab). Dissociation was monitored for 7200 seconds (Fab) or for 14400 seconds (IgG). A value for the dissociation rate was calculated by fitting a 1:1 binding model to the data.

The target of the next experiment is T3, Tau fragment 37-51 (human, UniProt P10636-8 37-51).
T3 construct: range 37-51
T3 peptide (looked up): GDTDAGLKESPLQTP
Put plainly: ELISA on Tau 15-mer peptides, O.D.; conditions of this panel not given. Background: An ELISA detects its analyte on a solid surface through an enzyme-linked reagent.

A further experiment has as its target T4, Tau fragment 1-15 (human, UniProt P10636-8 1-15).
T4 construct: range 1-15
T4 peptide (looked up): MAEPRQEFEVMEDHA
The description is as above.

For another experiment, the target named is T5, Tau fragment 19-33 (human, UniProt P10636-8 19-33, not fully specified).
T5 construct: range 19-33
T5 peptide (looked up): GLGDRKDQGGYTMHQ
Described as above.

The next experiment addresses T6, Tau fragment 28-42 (human, UniProt P10636-8 28-42, not fully specified).
T6 construct: range 28-42
T6 peptide (looked up): GYTMHQDQEGDTDAG
The experiment is described as above.

A further experiment deals with T7, MAPT(10-24) (human, also: biotinylated, site not given here).
T7 construct: also called Tau fragment 10-24
T7 peptide: VMEDHAGTYGLGDRK
The experiment is described as above.

For experiment [3], the target named is T2, recombinant human Tau monomer, 2N4R …. Put plainly: SPR, mIgG2a captured, Tau monomer analyte, 1:1 fit. A digest of the protocol:
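Antibodies in mIgG2a format captured on anti-mouse IgG surface at 1 μg/ml (30 or 45 s) or 0.1 μg/ml (70 or 150 s), 10 μl/min, in HBSP (10 mM HEPES pH7.4, 150 mM NaCl, 0.05% Tween 20). Tau monomer flowed as analyte; association 180-480 s, dissociation 300-600 s, 1:1 fit.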
Target sequence in this assay (P10636 other isoform, or with tags, fused parts or gaps limits assumed): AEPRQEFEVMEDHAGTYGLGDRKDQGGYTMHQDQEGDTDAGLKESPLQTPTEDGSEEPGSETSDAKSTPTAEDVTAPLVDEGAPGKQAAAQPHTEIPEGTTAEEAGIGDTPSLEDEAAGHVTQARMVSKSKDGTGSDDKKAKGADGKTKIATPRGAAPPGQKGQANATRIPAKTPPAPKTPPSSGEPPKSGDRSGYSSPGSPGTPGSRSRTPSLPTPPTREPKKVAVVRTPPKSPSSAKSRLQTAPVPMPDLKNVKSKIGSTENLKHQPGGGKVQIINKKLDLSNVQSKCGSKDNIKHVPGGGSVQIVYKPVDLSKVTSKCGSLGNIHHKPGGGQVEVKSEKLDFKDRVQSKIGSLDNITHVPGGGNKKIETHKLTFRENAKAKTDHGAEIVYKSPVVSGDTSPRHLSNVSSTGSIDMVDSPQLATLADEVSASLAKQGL
For orientation: SPR reads the build-up and loss of mass on a sensor chip optically.

For the next experiment, the target named is T8, Tau fragment 2-21 Y18A (human, UniProt P10636-8 2-21).
T8 construct: range 2-21
T8 peptide (looked up): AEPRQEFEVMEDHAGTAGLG
The experiment is described as follows: alanine scanning of Tau fragment 2-21.

The next experiment has as its target T9, Tau fragment 2-21 L20A (human, UniProt P10636-8 2-21).
T9 construct: range 2-21
T9 peptide (looked up): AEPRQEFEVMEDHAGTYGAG
The experiment is described as follows: alanine scanning of Tau fragment 2-21.

For a further experiment, the target named is T10, Tau fragment 7-21 (human, UniProt P10636-8 7-21).
T10 construct: range 7-21
T10 peptide (looked up): EFEVMEDHAGTYGLG
The experiment is described as follows: 15mer offset peptides.

Another experiment concerns the target T11, Tau fragment 9-23 (human, UniProt P10636-8 9-23).
T11 construct: range 9-23
T11 peptide (looked up): EVMEDHAGTYGLGDR
Put plainly: 15mer offset peptides.

For the next experiment, the target named is T12, Tau fragment 8-22 (human, UniProt P10636-8 8-22).
T12 construct: range 8-22
T12 peptide (looked up): FEVMEDHAGTYGLGD
The experiment is described as follows: 15mer offset peptides.

The next experiment deals with T13, Tau fragment 11-25 (human, UniProt P10636-8 11-25, not fully specified).
T13 construct: range 11-25
T13 peptide (looked up): MEDHAGTYGLGDRKD
The experiment is described as follows: 15mer offset peptides.

Experiment [4] deals with T2, recombinant human Tau monomer, 2N4R …. The experiment is described as follows: SPR single-cycle, Tau monomer amine-coupled. The protocol: as §1
For a further experiment, the target named is T14, MAPT(2-24) (human, biotinylated).
T14 construct: also called Tau fragment 2-24
T14 peptide: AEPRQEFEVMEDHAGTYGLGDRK
Put plainly: ELISA, biotinylated peptide on Neutravidin plate, IgG titrated, A450 nm. The protocol: (§2) Following a comparison of 37D3-H9 binding to biotinylated Tau monomer and biotinylated peptide (MAPT_10-24), binding of 37D3-H9 to additional biotinylated peptides was also assessed. Nunc maxisorp 96-well microplates were coated at 4° C. for >12 hours with Neutravidin diluted to 2 μg/ml in 50 mM Sodium Carbonate Buffer, pH 9.6. All subsequent incubations were performed at room temperature. After coating, plates were blocked with Superblock™ (PBS) Blocking Buffer (Thermo Fisher Scientific) for two hours then washed thoroughly with PBS, 0.05% Polysorbate 20. Wells were then exposed to biotinylated Tau peptides (Table 20) or Avi-tag biotinylated Tau monomer at 1 μg/ml for one hour and washed as previously. Peptides were synthesized using standard solid-phase Fmoc chemistry (see, e.g., Fmoc solid phase peptide synthesis: A practical approach; Chan, W. C., White, P. D., Eds.; Oxford University Press: New York, 2000). Antibodies 37D3-H9 mIgG2a and hu37D3-H9.v5 hIgG1, serially diluted from 500 nM to 50 pM in 90% Superblock™ (PBS) Blocking Buffer, were allowed to bind biotinylated-Tau coated wells for 90 minutes. Wells were washed as previously and bound antibody detected with peroxidase-conjugated secondary antibody (Invitrogen/Life Technologies) diluted 1/1000 in Superblock™ Blocking Buffer (Rabbit anti-Mouse IgG or Goat Anti-Human IgG (H+L) respectively). After twenty minutes wells were washed as previously and signal developed with TMB Microwell 2-Component Substrate (KPL). Reactions were stopped by addition of 1M Phosphoric Acid and absorbance at 450 nm was measured with a SpectraMax M2 platereader.

A further experiment concerns the target T15, MAPT(2-34) (human, biotinylated).
T15 construct: also called Tau fragment 2-34
T15 peptide: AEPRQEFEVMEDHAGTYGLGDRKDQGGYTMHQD
The description is as above. Here is the method:
as §2

Where no end group is shown, it is not given here.

T1 sequence (P10636 other isoform, or with tags, fused parts or gaps limits assumed): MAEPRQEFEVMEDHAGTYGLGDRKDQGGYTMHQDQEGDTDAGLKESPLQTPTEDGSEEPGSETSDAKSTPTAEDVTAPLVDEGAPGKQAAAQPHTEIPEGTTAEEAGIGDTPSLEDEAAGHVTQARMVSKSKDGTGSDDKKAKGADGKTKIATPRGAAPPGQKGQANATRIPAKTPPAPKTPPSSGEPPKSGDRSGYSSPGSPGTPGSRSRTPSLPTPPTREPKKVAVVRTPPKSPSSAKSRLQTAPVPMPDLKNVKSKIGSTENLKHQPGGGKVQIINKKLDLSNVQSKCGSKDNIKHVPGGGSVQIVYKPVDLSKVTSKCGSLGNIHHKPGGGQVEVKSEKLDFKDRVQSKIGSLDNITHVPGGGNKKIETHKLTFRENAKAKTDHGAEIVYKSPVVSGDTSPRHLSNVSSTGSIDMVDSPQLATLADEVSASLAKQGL

B1: 37D3-H9 (antibody, mouse IgG2a, V domains shown)
VH: EVQLVESGGDLAKPGGSLKLSCTASGLIFRSYGMSWVRQTPDKRLEWVATINSGGTYTYYPDSVKGRFTISRDNAKNTLYLQMSSLKSEDTAMYYCANSYSGAMDYWGQGTSVTVSS
VL: DDLLTQTPLSLPVSLGDPASISCRSSQSIVHSNGNTYFEWYLQKPGQSPKLLIYKVSNRFSGVPDRFSGSGSGTDFTLKISRVEAEDLGVYYCFQGSLVPWTFGGGTKLEIK
notes: also called 37D3-H9 mIgG2a; 37D3-H9 IgG
With B1, the Kd in experiment [1] was found to be 1 nM; in experiment [3] it was 1.6 nM. Also, the koff in experiment [2] is 1.1e-05 s⁻¹; in experiment [3], 0.0001 s⁻¹. Moreover, the binding result with Tau fragment 37-51 was “no binding (tested: not given)”; with Tau fragment 1-15 it was “no binding (tested: not given)”; in the experiment with Tau fragment 19-33, “no binding (tested: not given)”; in the experiment with Tau fragment 28-42, “no binding (tested: not given)”; in the experiment with MAPT(10-24) it was “binds”; in the experiment with Tau fragment 2-21 Y18A, “no binding”. The binding result with Tau fragment 2-21 L20A is given as “no binding”; with Tau fragment 7-21 it was “binds”; with Tau fragment 9-23, “binds”; with Tau fragment 8-22 it was “binds”; with Tau fragment 11-25 it was “binds”; in the experiment with MAPT(2-24), “binds”. The binding result with MAPT(2-34) is listed as “binds”. The kon in experiment [3] came to 100000 M⁻¹ s⁻¹. For the same molecule, in [4], the “fold difference in dissociation rate, Fab against IgG” value amounted to 45 fold.

The Kd is a measure of binding affinity in units of concentration. For orientation: koff means a measure of how fast the partners let go of each other. Usually kon stands for the rate constant with which the complex forms.
